Test results as given in publication PMC11940275.

The sequences below were run against SARS-CoV-2 spike protein, Omicron BA.2 (on SmBiT-BA.2 pseudovirus) (SARS-CoV-2 Omicron BA.2) (UniProt P0DTC2).
In the case of “ATCCAGAGTGACGCAGCATCGAGTGGCTTGTTTGTAATGTAGGGTTCCGGTCGTGGGTTGGACACGGTGGCTTAGT [76-mer aptamer]”, the IC50 is reported as 3610 nM. “ATCCAGAGTGACGCAGCATTTCATCGGGTCCAAAAGGGGCTGCTCGGGATTGCGGATATGGACACGT [67-mer aptamer]” gave an IC50 of 1640 nM. Sequence “CGCAGCACCCAAGAACAAGGACTGCTTAGGATTGCGATAGGTTCGG [46-mer aptamer]” has an IC50 of 700 nM.
